# Results as given in the RNAGym collection of RNA variant scans (doi:10.7554/elife.80360).
# B1: Twister Ribozyme (parent)
# chain: AACACUGCCAAUGCCGGUCCCAAGCCCGGAUAAAAGUGGAGGGGGCGG
# Variants of: B1
# Experiment: self-cleavage, relative activity (ratio to wild type); higher = more cleavage; co-transcriptional
row,Variant,self-cleavage
1,AACACUGCCAAUGCCGGUCCCAAGCGCGGAUAAAAGAGGAGGGGGCGG,0.126
2,AACACUGCCAAUGCCGGUCCCAAGCGCGGAUAAAAGCGGAGGGGGCGG,0.0957
3,AACACUGCCAAUGCCGGUCCCAAGCGCGGAUAAAAGGGGAGGGGGCGG,0.115
4,AACACUGCCAAUGCCGGUCCCAAGCUCGGUUAAAAGUGGAGGGGGCGG,0.556
5,AACACUGCCAAUGCCGGUCCCAAGCUCGGAUACAAGUGGAGGGGGCGG,0.203
6,AACACUGCCAAUGCCGGUCCCAAGCUCGGAUAGAAGUGGAGGGGGCGG,0.17
7,AACACUGCCAAUGCCGGUCCCAAGCUCGGAUAUAAGUGGAGGGGGCGG,0.266
8,AACACUGCCAAUGCCGGUCCCAAGCUCGGAUAACAGUGGAGGGGGCGG,0.133
9,AACACUGCCAAUGCCGGUCCCAAGCUCGGAUAAUAGUGGAGGGGGCGG,0.124
10,AACACUGCCAAUGCCGGUCCCAAGCUCGGAUAAAAGUGGCGGGGGCGG,0.131
11,AACACUGCCAAUGCCGGUCCCAAGCUCGGAUAAAAGUGGGGGGGGCGG,0.0722
12,AACACUGCCAAUGCCGGUCCCAAGCUCGGAUAAAAGUGGUGGGGGCGG,0.131
13,AACACUGCCAAUGCCGGUCCCAAGCUCGGAUAAAAGUGGAGGGGGAGG,0.207
14,AACACUGCCAAUGCCGGUCCCAAGCUCGGAUAAAAGUGGAGGGGGGGG,0.307
15,AACACUGCCAAUGCCGGUCCCAAGCUCGGAUAAAAGUGGAGGGGGUGG,0.519
16,AACACUGCCAAUGCCGGUCCCAAGCUCGAAUAAAAGUGGAGGGGGCGG,0.212
17,AACACUGCCAAUGCCGGUCCCAAGCUCGGAUAAAACUGGAGGGGGCGG,0.129
18,AACACUGCCAAUGCCGGUCCCAAGCUCGGAUAAAAGUUGAGGGGGCGG,0.201
19,AACACUGCCAAUGCCGGUCCCAAGCUCGGAUAAAAGUGCAGGGGGCGG,0.0911
20,AACACUGCCAAUGCCGGUCCCAAGCUCGGAUAAAAGUGUAGGGGGCGG,0.102
21,AACACUGCCAAUGCCGGUCCCAAGCUCGGAUAAAAGUGGAAGGGGCGG,0.109
22,AACACUGCCAAUGCCGGUCCCAAGCUCGGAUAAAAGUGGAGAGGGCGG,0.13
23,AACACUGCCAAUGCCGGUCCCAAGCUCGGAUAAAAGUGGAGCGGGCGG,0.15
24,AACACUGCCAAUGCCGGUCCCAAGCUCGGAUAAAAGUGGAGUGGGCGG,0.15
25,AACACUGCCAAUGCCGGUCCCAAGCUCGGAUAAAAGUGGAGGAGGCGG,0.125
26,AACACUGCCAAUGCCGGUCCCAAGCUCGGAUAAAAGUGGAGGCGGCGG,0.0933
27,AACACUGCCAAUGCCGGUCCCAAGCUCGGAUAAAAGUGGAGGUGGCGG,0.111

row,Variant,self-cleavage
1,AACACUGCCAAUGCCGGUCCCAAGCUCGGAUAAAAGUGGAGGGCGCGG,0.172
2,AACACUGCCAAUGCCGGUCCCAAGCUCGGAUAAAAGUGGAGGGGACGG,0.232
3,AACACUGCCAAUGCCGGUCCCAAGCUCGGAUAAAAGUGGAGGGGCCGG,0.0973
4,AACACUGCCAAUGCCGGUCCCAAGCUCGGAUAAAAGUGGAGGGGGCAG,0.149
5,AACACUGCCAAUGCCGGUCCCAAGCUCGGAUAAAAGUGGAGGGGGCCG,0.181
6,AACACUGCCAAUGCCGGUCCCAAGCUCGGAUAAAAGUGGAGGGGGCUG,0.15
7,AACACUGCCAAUGCCGGUCCCAAGCUCGGACAAAAGUGGAGGGGGCGG,0.495
8,AACACUGCCAAUGCCGGUCCCAAGCUCGGAGAAAAGUGGAGGGGGCGG,0.503
9,AACACUGCCAAUGCCGGUCCCAAGCUCGGAUAAAAGAGGAGGGGGCGG,0.121
10,AACACUGCCAAUGCCGGUCCCAAGCCAGGGUAAAAGUGGAGGGGGCGG,0.529
11,AACACUGCCAAUGCCGGUCCCAAGCCAGGAUCAAAGUGGAGGGGGCGG,0.484
12,AACACUGCCAAUGCCGGUCCCAAGCCAGGAUACAAGUGGAGGGGGCGG,0.245
13,AACACUGCCAAUGCCGGUCCCAAGCCAGGAUAGAAGUGGAGGGGGCGG,0.294
14,AACACUGCCAAUGCCGGUCCCAAGCCAGGAUAUAAGUGGAGGGGGCGG,0.334
15,AACACUGCCAAUGCCGGUCCCAAGCCAGGAUAAUAGUGGAGGGGGCGG,0.145
16,AACACUGCCAAUGCCGGUCCCAAGCCAGGAUAAAAGUGGCGGGGGCGG,0.155
17,AACACUGCCAAUGCCGGUCCCAAGCCACGAUAAAAGUGGAGGGGGCGG,0.323
18,AACACUGCCAAUGCCGGUCCCAAGCCAUGAUAAAAGUGGAGGGGGCGG,0.37
19,AACACUGCCAAUGCCGGUCCCAAGCCAGAAUAAAAGUGGAGGGGGCGG,0.382
20,AACACUGCCAAUGCCGGUCCCAAGCCAGCAUAAAAGUGGAGGGGGCGG,0.0808
21,AACACUGCCAAUGCCGGUCCCAAGCCAGUAUAAAAGUGGAGGGGGCGG,0.132
22,AACACUGCCAAUGCCGGUCCCAAGCCAGGAUAAAAAUGGAGGGGGCGG,0.121
23,AACACUGCCAAUGCCGGUCCCAAGCCAGGAUAAAACUGGAGGGGGCGG,0.123
24,AACACUGCCAAUGCCGGUCCCAAGCCAGGAUAAAAUUGGAGGGGGCGG,0.128
25,AACACUGCCAAUGCCGGUCCCAAGCCAGGAUAAAAGUGCAGGGGGCGG,0.0948
26,AACACUGCCAAUGCCGGUCCCAAGCCAGGAUAAAAGUGGACGGGGCGG,0.152
27,AACACUGCCAAUGCCGGUCCCAAGCCAGGAUAAAAGUGGAUGGGGCGG,0.0984
